The values below come from the nanobody polyreactivity screen of Harvey et al. (2022).

This data set can be described thus: yeast display, Sf9 membrane polyspecificity reagent, FACS + sequencing; frameworks hold sequencing errors. The gist of the method:
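A nanobody's polyreactivity label depends on the gate it was sorted from. Yeast display cells were stained with 10% biotinylated, detergent-solubilized Sf9 membrane reagent for 1 hour at 4 °C, enriched on streptavidin microbeads and sorted by FACS. The low and high (top ~1%) gates were set on anti-HA fluorescence for expression and streptavidin fluorescence for reagent binding.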
On to “QVQLVESGGGLVQAGGSLRISCAASGSIFYENTMGWYRQAPGKEREFVAAISRSGGSTYYADSVKGRFTISRDNAKNTVYLQMNSLKPEDTAVYYCAARSRPGYAVYYWGQGTQVTVSS”, for which the “polyreactivity (PSR sort gate)” value was “high polyreactivity”.
The same measure for “QVQLVESGGGLVQAGGSLRISCAASGSIFYGYAMGWYRQAPGKERELVAAITWSGGSTYYADSVKGRFTISRDNAKNTVYLQMNSLNPEDTAVYFCNAVSTRFRVRTSDYWGQGTQVTVSS”: “high polyreactivity”; for “QVQLVESGGGLVQAGGSLRISCAASGSNQDSYTMGWYRQAPGKERELVATISTSGGSTYYADSVKGRFTISRDNAKHTVYLQLNSLKPEDTAVYYCNADDPFGPHRYNSWGQGTQVTVSS”: “low polyreactivity”; for “QVQLVESGGGLVQAGGSLRISCAASGSTFDANAMGRYRQAPGKEREMVAANSYSGGTTYYADSVKGRFTISRDNAKNTVYLQMNSLKQEDTAVYYCATRKAFTAGSYNVYYGEYYWGQGTQVTVSS”: “low polyreactivity”.
To “QVQLVESGGGLVQAGGSLRISCAASGSTFDENAMGWYRQAPGKERELVAVISDSGGSTYYADSVKGRFTISRDNAKNTVYLQMNSLKPEDTAVYYCAKDVPPVYPTSSYDYWGQGTQVTVSS” belongs “low polyreactivity”.
The same measure for “QVQLVESGGGLVQAGGSLRISCAASGSTFDFYTMGWYRQAHGKEREMVASISWSGRTYYADSVKGRFTISRDNAKNTVYLQMTSLKPEDTAVYYCARRYVVNRDWGDDYWGQGTQVTVSS”: “high polyreactivity”; for “QVQLVESGGGLVQAGGSLRISCAASGSTFDPNAMGWYRQAPGKERELVAVIDSGDGTTYYADSVKGRFTISRDIAKNTVSFQMISQKREDTAVYYCAVDESTSYYDDHEDYWGQRTQVTVSS”: “low polyreactivity”; for “QVQLVESGGGLVQAGGSLRISCAASGSTFGSYVMGWYRQAPGKERELVAAICGSGGSTYYADSVKGRFTISRDNAKHTVYLQMNSLKPEDTAVYYCAAYVYFPWYGYWGQATQVTVSS”: “high polyreactivity”.
On to “QVQLVESGGGLVQAGGSLRISCAASGSTFGVNARGWYRQAPGKERELVAGITWTGGSTYYADSVKGRFTISRDNAKNTVYVQMNSLKPEDTAVYFCAKAWYSSYYDDSEDSWGQGTQVTVSS”, for which the “polyreactivity (PSR sort gate)” value is listed as “low polyreactivity”.
The same measure for “QVQLVESGGGLVQAGGSLRISCAASGSTFLTNTLGWYRQAPGKERELVAAITLRGGRTYYADSVKGRFTISRDNAKNTVYLQMNSLKPEDTAVYYCNARNYYYPSDRDYWGQGTQVTVSS”: “low polyreactivity”; for “QVQLVESGGGLVQAGGSLRISCAASGSTFSRNAMGWYRQAPGKERELVAAISRRGDTTYYADSVKGRFTISRDNAKNTVYLQRNSLKPEDTGVYYCAASRYGYPKYGYWGQGTQVTVSS”: “high polyreactivity”; for “QVQLVESGGGLVQAGGSLRISCAASGSTFSRNVMGWYRQAPGKERELVAAISRGGSTNYADSVKGRFTISRDNAKKTVYLQMNSLKTEVTAVYYCNAPRLGKFYYWGQGTQVTVSS”: “low polyreactivity”.
To “QVQLVESGGGLVQAGGSLRISCAASGSTFSTYAMGSYRTEPGKERELVASISNGGSTNYEDSVKGRFTISRDNAKNTVYLQMNSLKPEDTAVYYFNAESKAKYDYFGQGTQVTVSS” belongs “low polyreactivity”; to “QVQLVESGGGLVQAGGSLRISCAASGSTFSYYTMGWYRQAPGKERELVAAISRTGGSTYYADSVKGRFTISRDNAKNTVYLQMNSLKPEDTAVYYCAADWTRGSPGMDYWVQGTQVTVSS”, “high polyreactivity”.
The same measure for “QVQLVESGGGLVQAGGSLRISCAASGSTFYIYSMGWYRQAPGKERELVARISGSGGSTYYADSVKVRFTISRDYAKNTVYLQMNSLKPEDTAVYYCAADDIYKYYLYYAFPYYRYDYWGLGTQVTVSS”: “low polyreactivity”; for “QVQLVESGGGLVQAGGSLRISCAASGSTINRYAMGWYRQAPWKERELVAAINWRGSRTYYADSVKGRFTISRDNAKNTVYLQMNSLKPEDTAVYDCAASLGANGFQGRMYYWGQGTQVTVSS”: “low polyreactivity”.
As for “QVQLVESGGGLVQAGGSLRISCAASGYTFGNYAMGWYRQAPGKERELVAAISWRGARTNYADSVKGRFTISRDNAKNTVYLQMNSLKPEDTAVYYCAAGYYYGYPPRDYWGQGTQVTVSS”, the “polyreactivity (PSR sort gate)” value is listed as “high polyreactivity”.
To “QVQLVESGGGLVQAGGSLRISCAASGYTSIIYAMGWYRQAPGTERECVASIRGRSGSTYYADSVKGRFTISRDNAKNTVYLQMNSLKPEDTAVYYCAARARYVNWQGFDYWGQGTQVTVSS” belongs “high polyreactivity”.
To “QVQLVESGGGLVQAGGSLRISCAAYGRIFGYYALGWYRQAPGKERELVAAITSGGSTNYADSVKGRFTISRDNAKNTVYLQMNSLKPEDTAVYYCAARSWYFSWEMYYWGQGTQVTVSS” belongs “high polyreactivity”; to “QVQLVESGGGLVQAGGSLRISCAPSGFIYSYAMGWYRQAPGKERELVASITLNGGSTYYADSVKGRFTISRDNAKNTVYLQMNSLKPEDTAVYYCNADRASLSIGGYYRLWYDYWGQGTQVTVSS”, “high polyreactivity”; to “QVQLVESGGGLVQAGGSLRISCAPSGFTFGHYAMGWYRQAPGKERELVAAISYSGVRTYYADSVKGRFTISRDNAKNTVYLQMNSLKPEDTAVYYCNKYPAHYQTRRYDYWGQGTQVTVSS”, “high polyreactivity”.
To “QVQLVESGGGLVQAGGSLRISCAPSGSIFESNAMGWYRQAPGKERELVADITYRGTRTYYADSVKGRFTISRDNAKNTVYLQMNSLKPEDTAVYYCAVWQDHYDWGQGTQVTVSS” belongs “low polyreactivity”; to “QVQLVESGGGLVQAGGSLRISCAPSGSNINAYAIGWYRQSTGKERELVARITRGDGTTYYADSVKGRFTISRDNAMNTVYLQMNRLKPEDNAVYYCNRVEYYSVWGYDYWVQGTQVTVSS”, “low polyreactivity”.
“QVQLVESGGGLVQAGGSLRISCAPSGSTFYKYTMGWYRQAPGKERELVAAISGSGTTTYYADSVKGRFTISRDNAKNTVYLRMNSLKPEDTAVYYCNTARGYDYGGLDYWGQGSQVTVSS”: the “polyreactivity (PSR sort gate)” value is on record as “high polyreactivity”.
Take “QVQLVESGGGLVQAGGSLRISCASSGRIFKINAMGWYRQAPGKERELVATITRDGRTYYADSVKGRFTISRDNAKKTVYLQMNSLKPDDTAVYYCNVRRAFSGWRGYDYWGQGTQVTVSS”: the “polyreactivity (PSR sort gate)” value is on record as “high polyreactivity”.
The same measure for “QVQLVESGGGLVQAGGSLRISCASSGSIFVINAMGWYRQAPGKERELVAAIDWGGDTTYYADSVKGRFTISRDNAKITVYLQMNSLKPEDTAVYYCAADLFLWYEFEYWGQGTQVTVSS”: “high polyreactivity”.
As to “QVQLVESGGGLVQAGGSLRISFAASGRTFFGYAMGWYRQAPGKERELVATIDGSDGSTFYADSVKGRFTISRDNAKNTVYLQMNSLKPEDTAVYYCAAENFWQSKEYDYWGQGTQVTVSS”, the “polyreactivity (PSR sort gate)” value is listed as “low polyreactivity”.
With “QVQLVESGGGLVQAGGSLRISFAASGYIFYNYARRSYRQAPGKERELLAAMTRGGSTNYADSVKGRFTISRDNAQNTVYLQMNSLKPEDTAGYYCAAEEGPPWSRYDSWGQGTQVTVSS”, the “polyreactivity (PSR sort gate)” value is “low polyreactivity”.
To “QVQLVESGGGLVQAGGSLRISSAASGFTFTPNAKGWYRQAPGKERELVAVITWNGGTTYYADSVKGRFTISRDNAQNTVYLQMNSLKPEDTAVYYCNADGLILYDYWGHGTQVTVSS” belongs “low polyreactivity”; to “QVQLVESGGGLVQAGGSLRISSAASGSTFFRYDLGWYRPAPGKEWELVAAITASGTRTYYADSVKGRFTISRDNAKNTVYLQMNSLKPEDTAVYYCAADSRRYGYDYWGQGYQVTVSS”, “high polyreactivity”; to “QVQLVESGGGLVQAGGSLRISSAPSGITYYGNVMGWYRQAPGKERELVADISWSGGRTYYADSVKGRFTISRDNAKNTVYLQITSLKPEVTALYDCAAEGTTNRGVYASYDYWGQGTQVTVSS”, “low polyreactivity”.
The same measure for “QVQLVESGGGLVQAGGSLRITCAASASIYYRYAMGWNRQAPGKERELVAAITYSGGSTYYADSVKGRFTISRDNAKNPVYLQMNSLKPEDTAVYYCAKDYPPPISDYSRYYGYGYWGQGTQVTVSS”: “low polyreactivity”; for “QVQLVESGGGLVQAGGSLRITCAASGLTFPPNAMGWYRQAPGKERELVAAITRSGGSTYYADSVKGRFTISRDNAKNTFYLQMNSLKPEDTAVYYCAVYLPYSQRYVHYYYWGQGPQVTVSS”: “high polyreactivity”.
The same measure for “QVQLVESGGGLVQAGGSLRKSCAASGSIFADKAMGWYRQAPGKERELVATISAPDGSTYYADYVKGRFTISGDNAKNTVYLQMNSLKPEDTAVYYCAASGYYILSWRYDYWGQGTQVTVSS”: “low polyreactivity”.
On to “QVQLVESGGGLVQAGGSLRLAVLPPDLPSTLNDMGWYRQAPGKERELVAAITRGGSTNYADSVKGRFTLSRDNAKNTVYLQMNSLKPEDTAVYYCAAPYAGWRDGGDYWGQGTQVTVSS”, for which the “polyreactivity (PSR sort gate)” value is “low polyreactivity”.
Turning to “QVQLVESGGGLVQAGGSLRLCCAASGFILLDYAKGWYRQAPGNERELVAAISWSGARTYYADSVKRRFTISRDNAKNTVYLQMNSLKPEDTAVYYCATRYRWTPYDYWGQGTQVTVSS”, the “polyreactivity (PSR sort gate)” value is “low polyreactivity”.
The same measure for “QVQLVESGGGLVQAGGSLRLCCAASGIIFDGYAMGWYRQAPGKERELVAGITIGDITYYADSVKGRFTISRDNAKNTVYLQMTSLKPEDTAVYYCAADSYYYQTAYDYWGQGTQVTVSS”: “low polyreactivity”.
Turning to “QVQLVESGGGLVQAGGSLRLCCAASGNIFAYYAMGWYRQPPAKERELVAGISRRGGNTYYADSVKGRFTISRDNAKNTVYLQMNSLKPEDTAVYYCAAITYSGQRFDYWGQGTQVTVSS”, the “polyreactivity (PSR sort gate)” value is “high polyreactivity”.
To “QVQLVESGGGLVQAGGSLRLCCAASGSIFKYNAMGWYRQAPGKERELVAAITWSGGSTYYADSVKGRFTISRDNAKNTVYLQMNSLKPEDTAVYYCAAVYYYASRTSKQPYYHWGQGTQVSVSS” belongs “high polyreactivity”.
The same measure for “QVQLVESGGGLVQAGGSLRLCCAASGSNFRRNAMGLYRQAPGKERELVAAMSWTSTRTYYADSVKVRFTISRDNAKNTVYLQMNSLKPEDTAVYYCAADSNGGGFQLYSYDSGLYYWGQGTQVTVSS”: “high polyreactivity”; for “QVQLVESGGGLVQAGGSLRLCCASSGSTFTYNTMGWYRQAPGKERELVAAISFSSGRTYYADSVKVRFTISRYNAINTVYLHINSLKPEDTAVYYCNARTWETLRGYDYWGQGTQVTVSS”: “high polyreactivity”.
